Blank lines part the entries; values can stand above or below the substance they belong to.
How the values were obtained:
HLA-B*8201 (B82) (human) = experiment: Luminex, iBeads (#6), 1:8
[1] = target: HLA-Cw*0302 (Cw10) (human); experiment: Luminex, iBeads (#6), 1:8
[2] = target: HLA-Cw*0303 (Cw9) (human); experiment: Luminex, iBeads (#6), 1:8
[3] = target: HLA-Cw*0304 (Cw10) (human); experiment: Luminex, iBeads (#6), 1:8
[4] = target: HLA-Cw*0501 (Cw5) (human); experiment: Luminex, iBeads (#6), 1:8
[5] = target: HLA-Cw*0602 (Cw6) (human); experiment: Luminex, iBeads (#6), 1:8
[6] = target: HLA-Cw*0702 (Cw7) (human); experiment: Luminex, iBeads (#6), 1:8
[7] = target: HLA-Cw*0801 (Cw8) (human); experiment: Luminex, iBeads (#6), 1:8
[8] = target: HLA-Cw*1203 (Cw12) (human); experiment: Luminex, iBeads (#6), 1:8
[9] = target: HLA-Cw*1402 (Cw14) (human); experiment: Luminex, iBeads (#6), 1:8
[10] = target: HLA-Cw*1502 (Cw15) (human); experiment: Luminex, iBeads (#6), 1:8
[11] = target: HLA-Cw*1601 (Cw16) (human); experiment: Luminex, iBeads (#6), 1:8
[12] = target: HLA-Cw*1701 (Cw17) (human); experiment: Luminex, iBeads (#6), 1:8
[13] = target: HLA-Cw*1802 (Cw18) (human); experiment: Luminex, iBeads (#6), 1:8
[14] = target: HLA-A*3001 (A30) single antigen on beads (human); experiment: Luminex iBeads (#6), IVIg 1:8
[15] = target: HLA-A*3101 (A31) single antigen on beads (human); experiment: Luminex iBeads (#6), IVIg 1:8
[16] = target: HLA-A*3303 (A33) single antigen on beads (human); experiment: Luminex iBeads (#6), IVIg 1:8
[17] = target: HLA-A*3401 (A34) single antigen on beads (human); experiment: Luminex iBeads (#6), IVIg 1:8
HLA-B*0702 (B7) (human) = experiment: Luminex iBeads (#6), IVIg diluted 1:8
HLA-B*0801 (B8) (human) = experiment: Luminex iBeads (#6), IVIg diluted 1:8
HLA-B*1301 (B13) (human) = experiment: Luminex iBeads (#6), IVIg diluted 1:8
HLA-B*1302 (B13) (human) = experiment: Luminex iBeads (#6), IVIg diluted 1:8
HLA-B*1402 (B65) (human) = experiment: Luminex iBeads (#6), IVIg diluted 1:8
HLA-B*1501 (B62) (human) = experiment: Luminex iBeads (#6), IVIg diluted 1:8
HLA-B*1502 (B75) (human) = experiment: Luminex iBeads (#6), IVIg diluted 1:8
HLA-B*1503 (B72) (human) = experiment: Luminex iBeads (#6), IVIg diluted 1:8
HLA-B*1510 (B71) (human) = experiment: Luminex iBeads (#6), IVIg diluted 1:8
HLA-B*1511 (B75) (human) = experiment: Luminex iBeads (#6), IVIg diluted 1:8
HLA-B*1512 (B76) (human) = experiment: Luminex iBeads (#6), IVIg diluted 1:8
HLA-B*1516 (B63) (human) = experiment: Luminex iBeads (#6), IVIg diluted 1:8
HLA-B*1801 (B18) (human) = experiment: Luminex iBeads (#6), IVIg diluted 1:8
[18] = target: HLA-A*2902 (A29) single antigen on beads (human); experiment: Luminex, iBead vs regular bead, IVIg 1:8
[19] = target: HLA-A*3001 (A30) single antigen on beads (human); experiment: Luminex, iBead vs regular bead, IVIg 1:8
[20] = target: HLA-A*3101 (A31) single antigen on beads (human); experiment: Luminex, iBead vs regular bead, IVIg 1:8
[21] = target: HLA-A*3301 (A33) single antigen on beads (human); experiment: Luminex, iBead vs regular bead, IVIg 1:8
[22] = target: HLA-A*3402 (A34) single antigen on beads (human); experiment: Luminex, iBead vs regular bead, IVIg 1:8
[23] = target: HLA-A*3601 (A36) single antigen on beads (human); experiment: Luminex, iBead vs regular bead, IVIg 1:8
[24] = target: HLA-A*6601 (A66) single antigen on beads (human); experiment: Luminex, iBead vs regular bead, IVIg 1:8
[25] = target: HLA-A*6801 (A68) single antigen on beads (human); experiment: Luminex, iBead vs regular bead, IVIg 1:8
[26] = target: HLA-A*6901 (A69) single antigen on Luminex beads (human); experiment: Luminex single antigen bead assay, regular beads (#7), IVIg 1:8
[27] = target: HLA-A*7401 (A74) single antigen on Luminex beads (human); experiment: as above
[28] = target: HLA-A*8001 (A80) single antigen on Luminex beads (human); experiment: as above
[29] = target: Albumin (negative control beads) (human or bovine); experiment: Luminex, iBeads (#6), 1:8
HLA-B*1513 (B77) (human) = experiment: Luminex iBeads (#6), IVIg diluted 1:8
[30] = target: Serum albumin on negative control beads (HSA/BSA) (human or bovine); experiment: Luminex iBeads (#6), IVIg diluted 1:8
[31] = target: HLA-A*3303 (A33) single antigen on beads (human); experiment: Luminex, iBead vs regular bead, IVIg 1:8
[32] = target: HLA-A*3401 (A34) single antigen on beads (human); experiment: Luminex, iBead vs regular bead, IVIg 1:8

- MFI (HLA-B*8201 (B82) (human)): 510 MFI
- MFI [1]: 1170 MFI
- MFI [2]: 1220 MFI
- MFI [3]: 1440 MFI
- MFI [4]: 1510 MFI
- MFI [5]: 586 MFI
- MFI [6]: 1620 MFI
- MFI [7]: 650 MFI
- MFI [8]: 1620 MFI
- MFI [9]: 976 MFI
- MFI [10]: 255 MFI
- MFI [11]: 1110 MFI
- MFI [12]: 2710 MFI
- MFI [13]: 873 MFI
- MFI [14]: 510 MFI
- MFI [15]: 0 MFI
- MFI [16]: 152 MFI
- MFI [17]: 2060 MFI
- MFI (HLA-B*0702 (B7) (human)): 0 MFI
- MFI (HLA-B*0801 (B8) (human)): 114 MFI
- MFI (HLA-B*1301 (B13) (human)): 52 MFI
- MFI (HLA-B*1302 (B13) (human)): 0 MFI
- MFI (HLA-B*1402 (B65) (human)): 0 MFI
- MFI (HLA-B*1501 (B62) (human)): 0 MFI
- MFI (HLA-B*1502 (B75) (human)): 0 MFI
- MFI (HLA-B*1503 (B72) (human)): 0 MFI
- MFI (HLA-B*1510 (B71) (human)): 0 MFI
- MFI (HLA-B*1511 (B75) (human)): 1090 MFI
- MFI (HLA-B*1512 (B76) (human)): 1380 MFI
- MFI (HLA-B*1516 (B63) (human)): 880 MFI
- MFI (HLA-B*1801 (B18) (human)): 0 MFI
- Difference % (iBead MFI vs regular bead MFI) [18]: 44%
- Difference % (iBead MFI vs regular bead MFI) [19]: -45%
- Difference % (iBead MFI vs regular bead MFI) [20]: -100%
- Difference % (iBead MFI vs regular bead MFI) [21]: -9%
- Difference % (iBead MFI vs regular bead MFI) [22]: 0%
- Difference % (iBead MFI vs regular bead MFI) [23]: -26%
- Difference % (iBead MFI vs regular bead MFI) [24]: -40%
- Difference % (iBead MFI vs regular bead MFI) [25]: 0%
- MFI [26]: 1720 MFI
- MFI [27]: 201 MFI
- MFI [28]: 2290 MFI
Substance: IVIg Octagam (Octapharma, Lachen, Switzerland) (antibody)

- MFI [29]: 5030 MFI
- MFI (HLA-B*8201 (B82) (human)): 4260 MFI
- MFI [1]: 2380 MFI
- MFI [2]: 2610 MFI
- MFI [3]: 2750 MFI
- MFI [4]: 6350 MFI
- MFI [5]: 8180 MFI
- MFI [6]: 3480 MFI
- MFI [7]: 1940 MFI
- MFI [8]: 2660 MFI
- MFI [9]: 1820 MFI
- MFI [10]: 7670 MFI
- MFI [11]: 2950 MFI
- MFI [12]: 9610 MFI
- MFI [13]: 7810 MFI
- MFI [14]: 624 MFI
- MFI [15]: 351 MFI
- MFI [16]: 725 MFI
- MFI [17]: 4320 MFI
- MFI (HLA-B*0702 (B7) (human)): 2010 MFI
- MFI (HLA-B*0801 (B8) (human)): 324 MFI
- MFI (HLA-B*1301 (B13) (human)): 1840 MFI
- MFI (HLA-B*1302 (B13) (human)): 1200 MFI
- MFI (HLA-B*1402 (B65) (human)): 0 MFI
- MFI (HLA-B*1501 (B62) (human)): 394 MFI
- MFI (HLA-B*1502 (B75) (human)): 709 MFI
- MFI (HLA-B*1503 (B72) (human)): 0 MFI
- MFI (HLA-B*1510 (B71) (human)): 492 MFI
- MFI (HLA-B*1511 (B75) (human)): 2380 MFI
- MFI (HLA-B*1512 (B76) (human)): 5970 MFI
- MFI (HLA-B*1513 (B77) (human)): 904 MFI
- MFI (HLA-B*1516 (B63) (human)): 3280 MFI
- MFI (HLA-B*1801 (B18) (human)): 0 MFI
- MFI [30]: 5030 MFI
- Difference % (iBead MFI vs regular bead MFI) [18]: 348%
- Difference % (iBead MFI vs regular bead MFI) [19]: -32%
- Difference % (iBead MFI vs regular bead MFI) [20]: 189%
- Difference % (iBead MFI vs regular bead MFI) [21]: 68%
- Difference % (iBead MFI vs regular bead MFI) [31]: 125%
- Difference % (iBead MFI vs regular bead MFI) [32]: 42%
- Difference % (iBead MFI vs regular bead MFI) [22]: 76%
- Difference % (iBead MFI vs regular bead MFI) [23]: 145%
- Difference % (iBead MFI vs regular bead MFI) [24]: 86%
- Difference % (iBead MFI vs regular bead MFI) [25]: 230%
Substance: IVIg GamaSTAN S/D (Talecris Biotherapeutics, USA) (antibody)

— patent US10800847
